Laboratory results as given in PMC5538822, “RNA-dependent stabilization of SUV39H1 at constitutive heterochromatin”.
Positions count from the first letter of the chain named.

Columns and labels:
Conditions in all cases: protein: recombinant; tags: MBP; label: 32P
MBP-SUV39H1 42-106 R84A [1] = target: T1, MBP-SUV39H1 42-106 R84A (Homo sapiens, UniProt O43463 42-106, R84A); experiment: filter binding; 20 mM Tris-HCl pH 7.4, 50 mM NaCl, 10% glycerol, ~4 U RNase inhibitor, room temperature 10 min; native gel 0.5X TBE at 25 C; filter binding on nitrocellulose in the same buffer
T1 sequence: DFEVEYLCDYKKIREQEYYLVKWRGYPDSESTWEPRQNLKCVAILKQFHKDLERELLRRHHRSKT

MBP-SUV39H1 42-106 R55A [2] = target: T2, MBP-SUV39H1 42-106 R55A (Homo sapiens, UniProt O43463 42-106, R55A); experiment: as above
T2 sequence: T1 sequence with R14A, A43R

MBP-SUV39H1 42-106 R84A [3] = target: T1, MBP-SUV39H1 42-106 R84A; experiment: EMSA; 20 mM Tris-HCl pH 7.4, 50 mM NaCl, 10% glycerol, ~4 U RNase inhibitor, room temperature 10 min; native gel 0.5X TBE at 25 C; filter binding on nitrocellulose in the same buffer
MBP-SUV39H1 42-106 R55A [4] = target: T2, MBP-SUV39H1 42-106 R55A; experiment: as above

Measured: binding signal

B1: sense 19mer ssRNA (ssRNA)
RNA: AUAUGGGAACCACUGAUCC
> 40 fold lower affinity than WT: MBP-SUV39H1 42-106 R84A [1] | MBP-SUV39H1 42-106 R55A [2] | MBP-SUV39H1 42-106 R84A [3] | MBP-SUV39H1 42-106 R55A [4]
